Data reported in the array DNA melting data of Ke et al..

Assay: melting temperature; melt of duplexes
Details: sodium 0.0675 M; strand 1 µM

Substance	Tm [°C]
CGACGTGCGTTATGTGCTG+CAGCACATTGAGCACGTCG ((((((((...((((((((+))))))))...))))))))	54
CGACGTGCGTTATGTGCTG+CAGCACATTGGGCACGTCG ((((((((...((((((((+))))))))...))))))))	50.3
CGACGTGCTAAATGTGCTG+CAGCACATAAAGCACGTCG (((((((((..((((((((+))))))))..)))))))))	53.1
CGACGTGCTAAATGTGCTG+CAGCACATAATGCACGTCG ((((((((...((((((((+))))))))...))))))))	50.7
CGACGTGCTAAATGTGCTG+CAGCACATACTGCACGTCG ((((((((...((((((((+))))))))...))))))))	49.7
CGACGTGCTAAATGTGCTG+CAGCACATAGTGCACGTCG ((((((((...((((((((+))))))))...))))))))	45.2
CGACGTGCTAAATGTGCTG+CAGCACATATGGCACGTCG ((((((((.(.((((((((+)))))))).).))))))))	52
CGACGTGCTAAATGTGCTG+CAGCACATCACGCACGTCG ((((((((...((((((((+))))))))...))))))))	49
CGACGTGCTAAATGTGCTG+CAGCACATCCAGCACGTCG (((((((((..((((((((+))))))))..)))))))))	50.8
CGACGTGCTAAATGTGCTG+CAGCACATCCTGCACGTCG ((((((((...((((((((+))))))))...))))))))	49
CGACGTGCTAAATGTGCTG+CAGCACATCGCGCACGTCG ((((((((...((((((((+))))))))...))))))))	47.5
CGACGTGCTAAATGTGCTG+CAGCACATCGTGCACGTCG ((((((((...((((((((+))))))))...))))))))	44.7
CGACGTGCTAAATGTGCTG+CAGCACATCTTGCACGTCG ((((((((.(.((((((((+)))))))).).))))))))	50.1
CGACGTGCTAAATGTGCTG+CAGCACATGAGGCACGTCG ((((((((...((((((((+))))))))...))))))))	53.4
CGACGTGCTAAATGTGCTG+CAGCACATGGAGCACGTCG (((((((((..((((((((+))))))))..)))))))))	54.5
CGACGTGCTAAATGTGCTG+CAGCACATGGGGCACGTCG ((((((((...((((((((+))))))))...))))))))	52.5
CGACGTGCTAAATGTGCTG+CAGCACATTAAGCACGTCG (((((((((.(((((((((+))))))))).)))))))))	55.8
CGACGTGCTAAATGTGCTG+CAGCACATTACGCACGTCG ((((((((..(((((((((+)))))))))..))))))))	51.4
CGACGTGCTAAATGTGCTG+CAGCACATTCCGCACGTCG ((((((((..(((((((((+)))))))))..))))))))	50.1
CGACGTGCTAAATGTGCTG+CAGCACATTGAGCACGTCG (((((((((.(((((((((+))))))))).)))))))))	57.2
CGACGTGCTAAATGTGCTG+CAGCACATTGCGCACGTCG ((((((((..(((((((((+)))))))))..))))))))	51.2
CGACGTGCTAAATGTGCTG+CAGCACATTTAGCACGTCG (((((((((((((((((((+)))))))))))))))))))	61.6
CGACGTGCTAAATGTGCTG+CAGCACATTTCGCACGTCG ((((((((.((((((((((+)))))))))).))))))))	55.3
CGACGTGCTACATGTGCTG+CAGCACATACAGCACGTCG (((((((((..((((((((+))))))))..)))))))))	51.5
CGACGTGCTACATGTGCTG+CAGCACATACGGCACGTCG ((((((((...((((((((+))))))))...))))))))	48.8
CGACGTGCTACATGTGCTG+CAGCACATAGGGCACGTCG ((((((((...((((((((+))))))))...))))))))	50.8

Substance	Tm [°C]
CGACGTGCTACATGTGCTG+CAGCACATAGTGCACGTCG ((((((((...((((((((+))))))))...))))))))	48.1
CGACGTGCTACATGTGCTG+CAGCACATCAAGCACGTCG (((((((((..((((((((+))))))))..)))))))))	50.6
CGACGTGCTACATGTGCTG+CAGCACATCCGGCACGTCG ((((((((...((((((((+))))))))...))))))))	48.7
CGACGTGCTACATGTGCTG+CAGCACATCGCGCACGTCG ((((((((...((((((((+))))))))...))))))))	46.9
CGACGTGCTACATGTGCTG+CAGCACATCTCGCACGTCG ((((((((.(.((((((((+)))))))).).))))))))	47.2
CGACGTGCTACATGTGCTG+CAGCACATCTGGCACGTCG ((((((((.(.((((((((+)))))))).).))))))))	49.9
CGACGTGCTACATGTGCTG+CAGCACATGACGCACGTCG ((((((((..(((((((((+)))))))))..))))))))	50.8
CGACGTGCTACATGTGCTG+CAGCACATGAGGCACGTCG ((((((((..(((((((((+)))))))))..))))))))	55.8
CGACGTGCTACATGTGCTG+CAGCACATGCCGCACGTCG ((((((((..(((((((((+)))))))))..))))))))	52.3
CGACGTGCTACATGTGCTG+CAGCACATGGAGCACGTCG (((((((((.(((((((((+))))))))).)))))))))	61.7
CGACGTGCTACATGTGCTG+CAGCACATGGCGCACGTCG ((((((((..(((((((((+)))))))))..))))))))	54.7
CGACGTGCTACATGTGCTG+CAGCACATGTCGCACGTCG ((((((((.((((((((((+)))))))))).))))))))	57.2
CGACGTGCTACATGTGCTG+CAGCACATTAGGCACGTCG ((((((((...((((((((+))))))))...))))))))	50.5
CGACGTGCTACATGTGCTG+CAGCACATTCCGCACGTCG ((((((((...((((((((+))))))))...))))))))	47.2
CGACGTGCTACATGTGCTG+CAGCACATTCGGCACGTCG ((((((((...((((((((+))))))))...))))))))	49.1
CGACGTGCTACATGTGCTG+CAGCACATTTTGCACGTCG ((((((((.(.((((((((+)))))))).).))))))))	50.4
CGACGTGCTAGATGTGCTG+CAGCACATACAGCACGTCG (((((((((..((((((((+))))))))..)))))))))	53.2
CGACGTGCTAGATGTGCTG+CAGCACATACGGCACGTCG ((((((((...((((((((+))))))))...))))))))	49.9
CGACGTGCTAGATGTGCTG+CAGCACATACTGCACGTCG ((((((((...((((((((+))))))))...))))))))	50.9
CGACGTGCTAGATGTGCTG+CAGCACATAGAGCACGTCG (((((((((..((((((((+))))))))..)))))))))	53.8
CGACGTGCTAGATGTGCTG+CAGCACATAGGGCACGTCG ((((((((...((((((((+))))))))...))))))))	51.5
CGACGTGCTAGATGTGCTG+CAGCACATATCGCACGTCG ((((((((.(.((((((((+)))))))).).))))))))	51
CGACGTGCTAGATGTGCTG+CAGCACATCAAGCACGTCG (((((((((.(((((((((+))))))))).)))))))))	57.5
CGACGTGCTAGATGTGCTG+CAGCACATCAGGCACGTCG ((((((((..(((((((((+)))))))))..))))))))	56.2
CGACGTGCTAGATGTGCTG+CAGCACATCATGCACGTCG ((((((((..(((((((((+)))))))))..))))))))	55.6
CGACGTGCTAGATGTGCTG+CAGCACATCGAGCACGTCG (((((((((.(((((((((+))))))))).)))))))))	59.7
